Data reported in patent US20220175920A1.
Where “and” joins values, the source holds several entries; their conditions need not be identical. Equal entries are not always repeated.

Key:
[1] = molecular target: human CD40 ectodomain human Fc fusion protein (human) (UniProt P25942); assay: competition flow cytometry: mouse mAb titrated into 2 ug/ml human CD40 ectodomain-human Fc, 1 h on ice, then added to human CD40L-transfected L cells; cell-bound CD40-Fc detected with anti-IgG-PE; blocked ligand: CD40L on L cells [left panel]
[2] = molecular target: human CD40 on cells (B cells, MDDCs, stably transfected CHO cells) (human) (UniProt P25942); assay: cell-based or functional assay
Sequence of human CD40 on cells (B cells, MDDCs, stably transfected CHO cells) (human) (P25942 21-277): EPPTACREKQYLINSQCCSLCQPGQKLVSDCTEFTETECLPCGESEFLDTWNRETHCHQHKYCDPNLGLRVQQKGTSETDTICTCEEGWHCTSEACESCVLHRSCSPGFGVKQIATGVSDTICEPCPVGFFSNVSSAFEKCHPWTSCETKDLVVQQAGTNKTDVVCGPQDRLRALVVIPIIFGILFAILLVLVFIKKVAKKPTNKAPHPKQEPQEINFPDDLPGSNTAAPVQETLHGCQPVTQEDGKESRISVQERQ

Sequence of human CD40 ectodomain human Fc fusion protein (human) (P25942 21-193): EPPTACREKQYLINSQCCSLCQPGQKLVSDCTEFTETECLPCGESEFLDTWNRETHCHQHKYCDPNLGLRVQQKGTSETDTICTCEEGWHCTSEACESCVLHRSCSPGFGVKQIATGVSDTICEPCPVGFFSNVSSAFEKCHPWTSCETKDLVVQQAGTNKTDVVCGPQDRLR

12E12 (antibody)
IC50 (read off the curve) [1]: 0.1 mg/L

human IgG4 control mAb with CD40L fused to the L chain
EC50 (nM) B cell: 50% of maximum B cell proliferation (FIG. 10B) [2]: > 10 nM | fold less active in inducing B cell proliferation than the 11B6 and 12B4-CD40L fusion proteins [2]: 10 fold

MEGACD40L (Mega sCD40L) (ligand)
EC50 (nM) IL-12 p40, MDDC secretion [2]: > 1 nM and < 10 nM | EC50 (nM) IL-15, MDDC secretion [2]: > 1 nM and < 10 nM | EC50 (nM) TNFα, MDDC secretion [2]: > 1 nM and < 10 nM | EC50/11B6-CD40L, IL-12 p40 [2]: 100 | EC50/11B6-CD40L, IL-15 [2]: 100 | EC50/11B6-CD40L, TNFα [2]: 100
